According to US20200318066A1:

Legend:
[1] = molecular target: H-2Kb (MHC-I) presenting the ovalbumin epitope SIINFEKL (SEQ ID NO: 54) (mouse); test: flow cytometry, 25-D1.16 staining of monocytes in OVA-loaded splenocytes against SQZ only, 2 and 4 h after SQZ
[2] = molecular target: H-2Kb (MHC-I) presenting the ovalbumin epitope SIINFEKL (SEQ ID NO: 54) (mouse); test: flow cytometry, 25-D1.16 staining of T, B and NK cells in OVA-loaded splenocytes against SQZ only, 2 and 4 h after SQZ

increase in fluorescence intensity [1]: > 10% | increase in fluorescence intensity [2]: > 40%
Substance: 25-D1.16 antibody
